Measurements: paper PMC3195669 (Biologics : Targets & Therapy, 2011)

Target: the molecule itself
Test: SDS-PAGE without heat denaturation or reducing agent

B1: recombinant mouse full-length adiponectin subfractions, unlabeled (natural protein, UniProt Q60994 18-247, looked up)
chain: EDDVTTTEELAPALVPPPKGTCAGWMAGIPGHPGHNGTPGRDGRDGTPGEKGEKGDAGLLGPKGETGDVGMTGAEGPRGFPGTPGRKGEPGEAAYVYRSAFSVGLETRVTVPNVPIRFTKIFYNQQNHYDGSTGKFYCNIPGLYYFSYHITVYMKDVKVSLFKKDKAVLFTYDQYQEKNVDQASGSVLLHLEVGDQVWLQVYGDGDHNGLYADNVNDSTFTGFLLYHDTN
- stoichiometry N: 6
